Measured values published in US20240158512A1 (TRUEBINDING, published 2024).
Several values for one entry are separate records, joined by “and”; a condition that tells them apart may be missing. Equal values may be shown once.

Key:
Galectin-3 [1] = biological target: T1, Galectin-3 (UniProt P17931 1-250, limits assumed); test: BLI; after 4 C for 3 months
T1 construct: Target of the anti-Gal3 antibody TB006; also called Gal3; GAL3

Galectin-3 [2] = biological target: T1, Galectin-3; test: BLI; after 4 C for 9 months
Galectin-3 [3] = biological target: T1, Galectin-3; test: BLI; after 4 C for 12 months
Galectin-3 [4] = biological target: T1, Galectin-3; test: BLI; after 5 freeze/thaws, 75% vol. of container
Galectin-3 [5] = biological target: T1, Galectin-3; test: BLI; after 3 freeze/thaws, 100% vol. of container
Galectin-3 [6] = biological target: T1, Galectin-3; test: BLI (Binding Activity); long-term stability 5 C, 1 month
Galectin-3 [7] = biological target: T1, Galectin-3; test: BLI (Binding Activity); long-term stability 5 C, 3 months
Galectin-3 [8] = biological target: T1, Galectin-3; test: ELISA (Biological Activity); long-term stability 5 C, 1 month
Galectin-3 [9] = biological target: T1, Galectin-3; test: ELISA (Biological Activity); long-term stability 5 C, 3 months
Galectin-3 [10] = biological target: T1, Galectin-3; test: BLI (Binding Activity); accelerated stability 25 C/60% RH, 1 month
Galectin-3 [11] = biological target: T1, Galectin-3; test: BLI (Binding Activity); accelerated stability 25 C/60% RH, 3 months
Galectin-3 [12] = biological target: T1, Galectin-3; test: ELISA (Biological Activity); accelerated stability 25 C/60% RH, 3 months
Galectin-3 [13] = biological target: T1, Galectin-3; test: ELISA blocking assay; TB006 diluted to 0.31 mg/mL in 0.9% NaCl, 25 C, 0 h; blocked partner not named
Galectin-3 [14] = biological target: T1, Galectin-3; test: ELISA blocking assay; TB006 diluted to 0.31 mg/mL in 0.9% NaCl, 25 C, 1 h; blocked partner not named
Galectin-3 [15] = biological target: T1, Galectin-3; test: ELISA blocking assay; TB006 diluted to 0.31 mg/mL in 0.9% NaCl, 25 C, 2 h; blocked partner not named
Galectin-3 [16] = biological target: T1, Galectin-3; test: ELISA blocking assay; TB006 diluted to 0.31 mg/mL in 0.9% NaCl, 25 C, 0.5 h; blocked partner not named
Galectin-3 (Gal3) [17] = biological target: T2, Galectin-3 (Gal3) (UniProt P17931 1-250, limits assumed); test: BLI; 20 mg/mL DS, time 0 control
T2 construct: Target of TB006
T2 sequence (P17931 whole entry): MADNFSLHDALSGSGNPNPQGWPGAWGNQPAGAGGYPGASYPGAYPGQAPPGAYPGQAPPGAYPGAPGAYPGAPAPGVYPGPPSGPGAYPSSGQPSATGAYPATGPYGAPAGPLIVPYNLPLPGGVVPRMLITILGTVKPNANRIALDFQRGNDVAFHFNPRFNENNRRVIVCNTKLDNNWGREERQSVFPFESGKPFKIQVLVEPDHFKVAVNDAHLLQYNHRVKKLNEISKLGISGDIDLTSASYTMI
In short: (§1)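 Each sample was taken either at time zero or after a stress step: shear from agitation, repeated freeze-thaw cycles, or storage at set temperatures, among them 40° C and cryogenic storage. The dissociation constant (Kd) for Galectin-3 binding came from biolayer interferometry.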

Galectin-3 (Gal3) [18] = biological target: T2, Galectin-3 (Gal3); test: BLI; 20 mg/mL DS after 40 C for 7 days
Galectin-3 (Gal3) [19] = biological target: T2, Galectin-3 (Gal3); test: BLI; 20 mg/mL DS after 4 C for 6 months
Galectin-3 (Gal3) [20] = biological target: T2, Galectin-3 (Gal3); test: BLI; 20 mg/mL DS after 40 C for 28 days
Galectin-3 (Gal3) [21] = biological target: T2, Galectin-3 (Gal3); test: BLI; 50 mg/mL DS after 25 C for 1 month
Galectin-3 (Gal3) [22] = biological target: T2, Galectin-3 (Gal3); test: BLI; 50 mg/mL DS after 4 C for 3 months
Galectin-3 (Gal3) [23] = biological target: T2, Galectin-3 (Gal3); test: BLI; 50 mg/mL DS after 4 C for 6 months
Galectin-3 (Gal3) [24] = biological target: T2, Galectin-3 (Gal3); test: BLI; 20 mg/mL DS after 25 C for 3 months
In short: as §1

Galectin-3 (Gal3) [25] = biological target: T2, Galectin-3 (Gal3); test: BLI; 20 mg/mL DS after 25 C for 6 months
In short: as §1

Galectin-3 (Gal3) [26] = biological target: T2, Galectin-3 (Gal3); test: BLI; 20 mg/mL DS after 25 C for 9 months
Galectin-3 (Gal3) [27] = biological target: T2, Galectin-3 (Gal3); test: BLI; 50 mg/mL DS after 25 C for 6 months
Galectin-3 (Gal3) [28] = biological target: T2, Galectin-3 (Gal3); test: BLI; 20 mg/mL DS after -80 C for 18 months
In short: as §1

Galectin-3 (Gal3) [29] = biological target: T2, Galectin-3 (Gal3); test: BLI; 20 mg/mL DS after agitation for 1 day
In short: as §1

Galectin-3 (Gal3) [30] = biological target: T2, Galectin-3 (Gal3); test: BLI; 50 mg/mL DS after -80 C for 12 months
Galectin-3 (Gal3) [31] = biological target: T2, Galectin-3 (Gal3); test: BLI; 50 mg/mL DS after agitation for 3 days

T1 sequence (P17931 whole entry): as above

B1: TB006 (antibody, human IgG4 S228P, kappa, V domains shown)
VH: QVQLVQSGAEVKKPGASVKVSCKASGYSFTNYYMHWVRQAPGQRLEWMGWIYPGSGNTNYNEKFQGRVTITADTSASTAYMELSSLRSEDTAVYYCSTAPGGFDVWGQGTTVTVSS
VL: DIVMTQTPLSLSVTPGQPASISCKSSKSLLHSDGITYLYWYLQKPGQSPQLLIYRMSNLASGVPDRFSGSGSGTDFTLKISRVEAEDVGVYYCAQMLEFPLTFGQGTKLEIKR
notes: Tested as formulated drug substance or drug product in 20 mM L-histidine, 5 mM methionine, 100 mM NaCl, 0.02% polysorbate 80, pH 5.8, or diluted in 0.9% saline; also called 4A11.H3L1; IMT006a
A Kd (Galectin-3 [1]) of 3.3 nM, a Kd (Galectin-3 [2]) of 2.2 nM and a Kd (Galectin-3 [3]) of 3.9 nM were found for B1 in this work. For the same binder, the Kd (Galectin-3 [4]) was 2.9 nM, the Kd (Galectin-3 [5]) was 2.7 nM and the Kd (Galectin-3 [6]) was 2.5 nM. For the same binder, the Kd (Galectin-3 [7]) was 3 nM, the IC50 (Galectin-3 [8]) was 1.8 µg/mL and the IC50 (Galectin-3 [9]) was 1.5 µg/mL. It also gave a Kd (Galectin-3 [10]) of 2.5 nM, a Kd (Galectin-3 [11]) of 3.1 nM and an IC50 (Galectin-3 [12]) of 1.5 µg/mL. The IC50 (Galectin-3 [13]) was 1.05 µg/mL, the IC50 (Galectin-3 [14]) was 1.63 µg/mL and 1.43 µg/mL and the IC50 (Galectin-3 [15]) was 1.67 µg/mL and 1.71 µg/mL. For the same binder, the IC50 (Galectin-3 [16]) was 1.66 µg/mL and 1.34 µg/mL.

B2: TB006 (antibody, human IgG4 S228P, kappa, V domains shown)
VH: QVQLVQSGAEVKKPGASVKVSCKASGYSFTNYYMHWVRQAPGQRLEWMGWIYPGSGNTNYNEKFQGRVTITADTSASTAYMELSSLRSEDTAVYYCSTAPGGFDVWGQGTTVTVSS
VL: DIVMTQTPLSLSVTPGQPASISCKSSKSLLHSDGITYLYWYLQKPGQSPQLLIYRMSNLASGVPDRFSGSGSGTDFTLKISRVEAEDVGVYYCAQMLEFPLTFGQGTKLEIKR
notes: Full antibody tested as drug substance (DS) in 20 mM L-histidine, 5 mM methionine, 100 mM NaCl, 0.02% polysorbate-80, pH 5.8; also called 4A11.H3L1; IMT006a
A Kd (Galectin-3 (Gal3) [17]) of 2.9 nM, a Kd (Galectin-3 (Gal3) [18]) of 2.9 nM and a Kd (Galectin-3 (Gal3) [19]) of 3.3 nM were found for B2 in this work. It also gave a Kd (Galectin-3 (Gal3) [20]) of 3.8 nM, a Kd (Galectin-3 (Gal3) [21]) of 2.2 nM and a Kd (Galectin-3 (Gal3) [22]) of 2.3 nM. It also gave a Kd (Galectin-3 (Gal3) [23]) of 2.1 nM, a Kd (Galectin-3 (Gal3) [24]) of 3.4 nM and a Kd (Galectin-3 (Gal3) [25]) of 3.4 nM. It also gave a Kd (Galectin-3 (Gal3) [26]) of 2.1 nM, a Kd (Galectin-3 (Gal3) [27]) of 2.4 nM and a Kd (Galectin-3 (Gal3) [28]) of 4.2 nM. The Kd (Galectin-3 (Gal3) [29]) was 3.1 nM, the Kd (Galectin-3 (Gal3) [30]) was 3.5 nM and the Kd (Galectin-3 (Gal3) [31]) was 3.7 nM.
